In paper PMC9113939, “Snapshots of actin and tubulin folding inside the TRiC chaperonin” (Nature Structural & Molecular Biology, 2022):

What was measured:
Settings in all cases: both partners purified
[1] = target: T1, endogenous human TCP-1 ring complex (TRiC), CCT5 tagged with 3×FLAG/Spytag (human, UniProt P17987;P78371;P49368;P50991;P48643;P40227;Q99832;P50990); test: cryo-EM structure; purified TRiC (1.5 mg/ml) premixed with Nb18 at 1:1 molar ratio, 1 mM ATP, 5 mM MgCl2, AlFx; closed and open states
T1 construct: CCT1 subunit of human TRiC; CCT2 subunit of human TRiC; CCT3 subunit of human TRiC; CCT4 subunit of human TRiC; CCT5 subunit of human TRiC, tag knocked into the genomic locus; CCT6 subunit of human TRiC; predominantly the CCT6A isoform by MS/MS and side-chain modelling; CCT7 subunit of human TRiC; CCT8 subunit of human TRiC; Hexadecamer of two back-to-back rings of eight paralogous subunits; also …

recombinant CCT4 = target: T2, recombinant CCT4 (Homo sapiens, UniProt P50991); test: BLI; Octet RED384, 25 °C, 20 mM HEPES pH 7.5, 150 mM NaCl, 0.1% BSA; biotinylated CCT5 on streptavidin sensors; Nb18 40 μM to 39 nM; steady-state fit
T2 construct: CCT4 subunit of TRiC, expressed recombinantly; Construct not described

[2] = target: T3, recombinant human CCT5 homo-oligomer (hexadecameric form, CCT5_(16)) (Homo sapiens (Human)., UniProt P48643, biotin (for BLI)); test: as above
T3 construct: it mentions that recombinant CCT5 was earlier made with a C-terminal His-tag; also called recombinant CCT5; overexpressed CCT5; source: E. coli, recombinant; copies: 16
T3 sequence (P48643 whole entry): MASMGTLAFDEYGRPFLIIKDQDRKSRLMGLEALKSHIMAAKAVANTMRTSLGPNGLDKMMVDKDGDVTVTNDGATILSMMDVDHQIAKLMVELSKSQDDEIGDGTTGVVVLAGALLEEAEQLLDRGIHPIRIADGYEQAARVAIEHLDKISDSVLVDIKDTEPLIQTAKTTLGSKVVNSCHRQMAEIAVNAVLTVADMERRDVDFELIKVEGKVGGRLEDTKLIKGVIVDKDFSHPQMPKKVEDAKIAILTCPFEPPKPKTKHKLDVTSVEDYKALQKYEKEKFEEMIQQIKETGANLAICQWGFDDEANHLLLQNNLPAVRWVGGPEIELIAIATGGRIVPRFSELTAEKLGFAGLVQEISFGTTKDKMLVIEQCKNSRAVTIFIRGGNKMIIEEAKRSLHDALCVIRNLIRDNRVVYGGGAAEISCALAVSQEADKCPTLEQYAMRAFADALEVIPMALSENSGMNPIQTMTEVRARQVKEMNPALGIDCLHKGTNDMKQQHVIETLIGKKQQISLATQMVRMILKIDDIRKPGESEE

T2 sequence (P50991 whole entry): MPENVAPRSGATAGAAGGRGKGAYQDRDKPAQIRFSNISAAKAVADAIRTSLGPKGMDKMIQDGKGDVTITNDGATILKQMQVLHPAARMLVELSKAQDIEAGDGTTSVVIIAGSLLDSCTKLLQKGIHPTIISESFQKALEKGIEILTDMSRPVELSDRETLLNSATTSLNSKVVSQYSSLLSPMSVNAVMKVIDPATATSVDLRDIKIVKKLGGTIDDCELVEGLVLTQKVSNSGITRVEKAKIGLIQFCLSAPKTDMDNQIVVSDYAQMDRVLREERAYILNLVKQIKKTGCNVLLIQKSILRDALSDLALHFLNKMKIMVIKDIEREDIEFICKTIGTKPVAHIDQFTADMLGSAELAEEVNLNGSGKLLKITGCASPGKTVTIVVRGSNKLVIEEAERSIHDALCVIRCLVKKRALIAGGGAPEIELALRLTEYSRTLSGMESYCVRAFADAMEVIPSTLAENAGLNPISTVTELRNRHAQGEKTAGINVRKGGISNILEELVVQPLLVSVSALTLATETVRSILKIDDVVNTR

stoichiometry N [1]: 2
Kd [2]: 86 nM
B1: nanobody Nb18 (VHH)
VHH: QVQLVESGGGLVQAGGSLRLSCGASGTFFRINDMGWYRQASGKQRELVASITRGGTTDYADSVKGRFTISRDNAKNTVYLQMNSLKPEDTAVYYCKANRNWGREWDDYWGQGTQVTVSS
notes: Nb18 is modelled in the TRiC–Nb18 structure solved here (PDB 7NVL); llama nanobody raised against CCT5 homo-hexadecamer, in vector pMESy4; Starting model was a homology model on PDB 6QX4 chain C (another nanobody); also called CA14679; source: E. coli, purified (Ni-NTA, SEC)
binding result (recombinant CCT4): no binding (tested: Nb18 40 μM to 39 nM (methods))
